Experimental data: publication PMC9288512

Biological target: recombinant human proprotein convertase subtilisin/kexin 9 (hPCSK9), his-tagged, Q8NBP7
Experiment: SPR
Details: chain shown with the change; 25 ℃; parent: ~5.013

Sequence of recombinant human proprotein convertase subtilisin/kexin 9 (hPCSK9), his-tagged, Q8NBP7 (Q8NBP7 153-692): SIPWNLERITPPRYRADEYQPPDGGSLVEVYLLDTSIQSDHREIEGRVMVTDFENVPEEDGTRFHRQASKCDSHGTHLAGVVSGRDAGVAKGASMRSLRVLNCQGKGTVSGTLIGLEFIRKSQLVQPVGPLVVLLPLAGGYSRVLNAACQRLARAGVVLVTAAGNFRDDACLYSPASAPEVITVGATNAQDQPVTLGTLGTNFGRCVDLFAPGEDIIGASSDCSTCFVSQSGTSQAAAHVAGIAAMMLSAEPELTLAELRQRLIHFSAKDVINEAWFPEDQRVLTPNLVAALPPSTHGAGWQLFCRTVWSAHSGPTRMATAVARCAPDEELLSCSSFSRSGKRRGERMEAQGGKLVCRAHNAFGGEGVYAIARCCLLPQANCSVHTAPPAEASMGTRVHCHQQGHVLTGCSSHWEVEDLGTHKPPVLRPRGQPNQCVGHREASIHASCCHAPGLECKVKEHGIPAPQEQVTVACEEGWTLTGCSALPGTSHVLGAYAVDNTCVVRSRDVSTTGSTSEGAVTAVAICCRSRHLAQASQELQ

Row | Binder | Kd [nM]
1 | VHH-B11 (monovalent camelid nanobody against hPCSK9) FR1:Q1E; FR1:Q5L; FR1:S11L; FR1:A14P; FR1:T23A; FR1:V24A; FR2:A54S; FR3:V87L; FR3:K95R; FR3:P96A; FR3:M101V (protein) EVQLLESGGGLVQPGGSLRLSCAASGYTYSSNCMGWFRQAPGKEHEGVSSIYIGGGSTYYADSVKGRFTISQDNAKNTLYLQMNSLRAEDTAVYYCAVGCQGLVDFGYWDQGTQVTVSS | > 1000
2 | VHH-B11 (monovalent camelid nanobody against hPCSK9) FR1:Q1E; FR1:Q5L; FR1:S11L; FR1:A14P; FR1:T23A; FR1:V24A; FR2:A54S; FR3:A83S; FR3:K95R; FR3:P96A; FR3:M101V (protein) EVQLLESGGGLVQPGGSLRLSCAASGYTYSSNCMGWFRQAPGKEHEGVSSIYIGGGSTYYADSVKGRFTISQDNSKNTVYLQMNSLRAEDTAVYYCAVGCQGLVDFGYWDQGTQVTVSS | 11.3
3 | VHH-B11 (monovalent camelid nanobody against hPCSK9) FR1:Q1E; FR1:Q5L; FR1:S11L; FR1:A14P; FR1:T23A; FR1:V24A; FR2:A54S; FR3:A83S; FR3:V87L; FR3:K95R; … (protein) EVQLLESGGGLVQPGGSLRLSCAASGYTYSSNCMGWFRQAPGKEHEGVSSIYIGGGSTYYADSVKGRFTISQDNSKNTLYLQMNSLRAEDTAVYYCAVGCQGLVDFGYWDQGTQVTVSS | > 1000

Further lines, results first:

Row | Kd [nM] | Binder
4 | 3.22 | VHH-B11 (monovalent camelid nanobody against hPCSK9) FR1:Q1E; FR1:Q5L; FR1:S11L; FR1:A14P; FR1:T23A; FR1:V24A; FR3:V87L; FR3:K95R; FR3:P96A; FR3:M101V (protein) EVQLLESGGGLVQPGGSLRLSCAASGYTYSSNCMGWFRQAPGKEHEGVASIYIGGGSTYYADSVKGRFTISQDNAKNTLYLQMNSLRAEDTAVYYCAVGCQGLVDFGYWDQGTQVTVSS
5 | 7.99 | VHH-B11 (monovalent camelid nanobody against hPCSK9) FR1:Q1E; FR1:Q5L; FR1:S11L; FR1:A14P; FR2:A54S; FR3:Q80R; FR3:A83S; FR3:V87L; FR3:K95R; FR3:P96A; FR3:M101V (protein) EVQLLESGGGLVQPGGSLRLSCTVSGYTYSSNCMGWFRQAPGKEHEGVSSIYIGGGSTYYADSVKGRFTISRDNSKNTLYLQMNSLRAEDTAVYYCAVGCQGLVDFGYWDQGTQVTVSS
